B1: mirvetuximab (antibody, V domains shown)
VH: QVQLVQSGAEVVKPGASVKISCKASGYTFTGYFMNWVKQSPGQSLEWIGRIHPYDGDTFYNQKFQGKATLTVDKSSNTAHMELLSLTSEDFAVYYCTRYDGSRAMDYWGQGTTVTVSS
VL: DIVLTQSPLSLAVSLGQPAIISCKASQSVSFAGTSLMHWYHQKPGQQPRLLIYRASNLEAGVPDRFSGSGSKTDFTLTISPVEAEDAATYYCQQSREYPYTFGGGTKLEIK
notes: IgG expressed in Expi293; the entries are labelled heavy/light chain of the IgG but hold only the variable domains; also called MYT0596
B2: MYT1154 (antibody, V domains shown)
VH: QVQLVQSGAEVVKPGASVKISCKHSGHTFTGYFMNWVKQSPGQSLEWIGRIHPYDGDTHYNQKFQGKATLTVDKSSNTAHMELLSLTSEDFAVYYCTRYDGSRAMDYWGQGTTVTVSS
VL: DIVLTQSPLSLAVSLGQPAIISCKASQSVSFAGTSLMHWYHQKPGQQPRLLIYRASNLEAGVPDRFSGSGSKTDFTLTISPVEAEDAATYYCQQSREYPYTFGGGTKLEIK
notes: IgG
B3: MYT0603 (antibody, V domains shown)
VH: QVQLVQSGAEVVKPGASVKISCKASGYTHTGYFMNWVKQSPGQSLEWIGRIHPYDGDTFYNQKFQGKATLTVDKSSNTAHMELLSLTSEDFAVYYCTRYDGSRAMDYWGQGTTVTVSS
VL: DIVLTQSPLSLAVSLGQPAIISCKASQSVSFAGTSLMHWYHQKPGQQPRLLIYRASNLEAGVPDRFSGSGSKTDFTLTISPVEAEDAATYYCQQSREYPYTFGGGTKLEIK
notes: IgG
B4: MYT2259 (antibody, V domains shown)
VH: EVQLVESGGGLVQPGGSLRLSCAASGFNIRTQSIHWVRQAPGKGLEWIGDIFPIDGITDYADSVKGRFTISADTSKNTAYLQMNSLRAEDTAVYYCARGSWSWHSGMDYYLDYWGQGTLVTVSS
VL: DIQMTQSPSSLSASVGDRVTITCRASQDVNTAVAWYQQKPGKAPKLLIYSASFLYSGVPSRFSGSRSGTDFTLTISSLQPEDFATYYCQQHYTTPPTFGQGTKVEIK
notes: IgG
B5: MYT4503 (antibody, V domains shown)
VH: EVQLVESGGGLVQPGGSLRLSCAASGFNIRTQSIHWVRQAPGKGLEWIGDIFPIDGITDYADSVKGRFTISADTSKNTAYLQMNSLRAEDTAVYYCARGSWSWPSGMDYYLDYWGQGTLVTVSS
VL: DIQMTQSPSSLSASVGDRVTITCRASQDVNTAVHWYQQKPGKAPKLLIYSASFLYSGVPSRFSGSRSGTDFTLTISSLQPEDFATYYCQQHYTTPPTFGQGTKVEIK
notes: IgG
B6: MYT2261 (antibody, V domains shown)
VH: EVQLVESGGGLVQPGGSLRLSCAASGFNIRTQSIHWVRQAPGKGLEWIGDIFPIDGITDYADSVKGRFTISADTSKNTAYLQMNSLRAEDTAVYYCARGSWSWPSHMDYYLDYWGQGTLVTVSS
VL: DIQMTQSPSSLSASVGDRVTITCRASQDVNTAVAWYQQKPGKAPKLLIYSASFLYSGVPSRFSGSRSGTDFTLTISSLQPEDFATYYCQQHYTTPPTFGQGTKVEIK
notes: IgG
B7: MYT4501 (antibody, V domains shown)
VH: EVQLVESGGGLVQPGGSLRLSCAASGFNIRTQSIHWVRQAPGKGLEWIGDIFPIDGITDYADSVKGRFTISADTSKNTAYLQMNSLRAEDTAVYYCARGSWSWPSGMDYYLDYWGQGTLVTVSS
VL: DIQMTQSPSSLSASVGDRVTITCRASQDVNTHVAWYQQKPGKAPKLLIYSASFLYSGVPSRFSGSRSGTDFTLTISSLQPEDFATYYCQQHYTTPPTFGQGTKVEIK
notes: IgG
B8: MYT2194 (antibody, V domains shown)
VH: EVQLVESGGGVVQPGRSLRLSCSASGFTFSGYGLHWVRQAPGKGLEWVAMISSGGSYTYYADSVKGRFAISRDNAKNTLFLQMDSLRPEDTGVYFCARHGDDPAWFAYWGQGTPVTVSS
VL: DIQLTQSPSSLSASVGDRVTITCSVSSSISSNNLHWYQQKPGKAPKPWIYGTSNLASGVPSRFSGSGSGTDYTFTISSLQPEDIATYYCQQWSSYPYMYTFGQGTKVEIK
notes: IgG
B9: MYT2219 (antibody, V domains shown)
VH: EVQLVESGGGVVQPGRSLRLSCSASGFTFSGYGLSWVRQAPGKGLEWVAMISSGGSYTYYADSVKGRFAISRDNAKNTLFLQMDSLRPEDTGVYFCARHGDDPHWFAYWGQGTPVTVSS
VL: DIQLTQSPSSLSASVGDRVTITCSVSSSISSNNLHWYQQKPGKAPKPWIYGTSNLASGVPSRFSGSGSGTDYTFTISSLQPEDIATYYCQQWSSYPYMYTFGQGTKVEIK
notes: IgG
B10: MYT2215 (antibody, V domains shown)
VH: EVQLVESGGGVVQPGRSLRLSCSASGFTFSGYGLSWVRQAPGKGLEWVAMISSGGSYTYYADSVKGRFAISRDNAKNTLFLQMDSLRPEDTGVYFCARHHDDPAWFAYWGQGTPVTVSS
VL: DIQLTQSPSSLSASVGDRVTITCSVSSSISSNNLHWYQQKPGKAPKPWIYGTSNLASGVPSRFSGSGSGTDYTFTISSLQPEDIATYYCQQWSSYPYMYTFGQGTKVEIK
notes: IgG
B11: MYT2196 (antibody, V domains shown)
VH: EVQLVESGGGVVQPGRSLRLSCSASGFTFSGYGLSWVRQAPGKGLEWVAMHSSGGSYTYYADSVKGRFAISRDNAKNTLFLQMDSLRPEDTGVYFCARHGDDPAWFAYWGQGTPVTVSS
VL: DIQLTQSPSSLSASVGDRVTITCSVSSSISSNNLHWYQQKPGKAPKPWIYGTSNLASGVPSRFSGSGSGTDYTFTISSLQPEDIATYYCQQWSSYPYMYTFGQGTKVEIK
notes: IgG
B12: MYT2195 (antibody, V domains shown)
VH: EVQLVESGGGVVQPGRSLRLSCSASGFTFSGYGLSWVRQAPGKGLEWVAHISSGGSYTYYADSVKGRFAISRDNAKNTLFLQMDSLRPEDTGVYFCARHGDDPAWFAYWGQGTPVTVSS
VL: DIQLTQSPSSLSASVGDRVTITCSVSSSISSNNLHWYQQKPGKAPKPWIYGTSNLASGVPSRFSGSGSGTDYTFTISSLQPEDIATYYCQQWSSYPYMYTFGQGTKVEIK
notes: IgG
B13: MYT2221 (antibody, V domains shown)
VH: EVQLVESGGGVVQPGRSLRLSCSASGFTFSGYGLSWVRQAPGKGLEWVAMISSGGSYTYYADSVKGRFAISRDNAKNTLFLQMDSLRPEDTGVYFCARHGDDPAWHAYWGQGTPVTVSS
VL: DIQLTQSPSSLSASVGDRVTITCSVSSSISSNNLHWYQQKPGKAPKPWIYGTSNLASGVPSRFSGSGSGTDYTFTISSLQPEDIATYYCQQWSSYPYMYTFGQGTKVEIK
notes: IgG
B14: MYT2217 (antibody, V domains shown)
VH: EVQLVESGGGVVQPGRSLRLSCSASGFTFSGYGLSWVRQAPGKGLEWVAMISSGGSYTYYADSVKGRFAISRDNAKNTLFLQMDSLRPEDTGVYFCARHGDHPAWFAYWGQGTPVTVSS
VL: DIQLTQSPSSLSASVGDRVTITCSVSSSISSNNLHWYQQKPGKAPKPWIYGTSNLASGVPSRFSGSGSGTDYTFTISSLQPEDIATYYCQQWSSYPYMYTFGQGTKVEIK
notes: IgG

For one experiment, the target named is T1, FOLR1 on NIH:OVCAR-3 cells (human, UniProt P15328 25-233).
T1 construct: Endogenous FOLR1 of NIH:OVCAR-3 (FOLR1+) cells; also called cell surface FOLR1
T1 sequence (P15328 25-233): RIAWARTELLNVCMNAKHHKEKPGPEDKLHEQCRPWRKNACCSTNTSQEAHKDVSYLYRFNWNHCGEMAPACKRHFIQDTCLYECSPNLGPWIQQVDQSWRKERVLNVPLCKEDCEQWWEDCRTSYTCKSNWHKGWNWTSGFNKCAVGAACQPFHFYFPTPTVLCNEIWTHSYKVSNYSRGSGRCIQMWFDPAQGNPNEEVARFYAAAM
The experiment is described as follows: flow cytometry on NIH:OVCAR-3 cells, Alexa Fluor 488 anti-human IgG. On the procedure:
Binding affinity of selected anti-FOLR1 pH engineered antibody variants from Examples 9 and 11 were measured on NIH:OVCAR-3 cells. 100,000 cells per well were resuspended in […] FC buffer in a 96 well deep well plate. Mirvetuximab and pH engineered antibody variants were serially diluted at a 1:3 dilution. 100 µL of diluted antibody was added to each well with final concentration ranging from ˜100 nM to 0.024 pM and incubated for 2 hours at 4° C. Post incubation, the cells were spun at 2000 rpm for 2 min and supernatant was discarded. Cells were washed twice with 500 μL of ice-cold FC buffer and resuspended with 100 μL of FC buffer. The cells were then transferred from the deep well plate to 96 well round bottom plate, spun at 2000 rpm for 2 min and incubated with 100 μL of 10 μg/mL Alexa Fluor 488 conjugated goat anti-human IgG secondary antibody (ThermoFisher Scientific, A11013) for 30 min. Post incubation, cells were washed with FC buffer and resuspended in 100 μL, of FC buffer to read on a BD Accuri C6 flow cytometer. […] MYT0603 and MYT1154 show high affinity binding to cell surface FOLR1 on NIH:OVCAR-3 cells in the pM-nM range confirming that variants created through pH engineering can retain functionally appropriate affinities as compared to their corresponding starting ABPCs (e.g., mirvetuximab).
(In general: Flow cytometry measures light scatter and fluorescence of single cells or particles in a stream.)
As a reminder, the IC50 is the point on the concentration scale where inhibition reaches its midpoint. Low readings indicate greater potency, high ones weaker potency. B1: the IC50 stood at 250 pM. On the same count and under the same terms, next, B2: 396 pM. The same measure, in the same setting: then B3, with 650 pM.

The target of a further experiment is T2, FOLR1 (R&D Systems, Cat #5646-FR) (human, UniProt P15328 25-233).
T2 construct: Bought soluble protein; also called Folate Receptor 1
T2 sequence (P15328 25-233 limits assumed): as the sequence (P15328 25-233) above
Description: BLI, IgG on anti-human Fc sensor. In general terms: Biolayer interferometry detects binding as a change in optical thickness at a sensor tip.
Consider B4, for which the binding result is “no binding (tested: 50 nM)”. Same read-out and setting: then B5, with “no binding (tested: 50 nM)”; and B6, with “no binding (tested: 50 nM)”. In the case of B7, the binding result is “no binding (tested: 50 nM)”. On the same count and under the same terms, then B8, with “no binding (tested: 50 nM)”; and B9, with “no binding (tested: 50 nM)”. The same measure, in the same setting: then B10, with “no binding (tested: 50 nM)”; and B11, with “no binding (tested: 50 nM)”; and B12, with “no binding (tested: 50 nM)”. On the same count and under the same terms, then B13, with “no binding (tested: 50 nM)”; and B14, with “no binding (tested: 50 nM)”.
